Residue numbers refer to the chain shown, from its start.
T1: human EphA7 (Homo sapiens, UniProt Q15375)
T1 construct: a protein of the extracellular region of each human Eph receptor fused with the SEAP protein and the His tag; made in house; host or cells: Expi293F cells (culture supernatant)
T1 sequence (Q15375 28-555 limits assumed): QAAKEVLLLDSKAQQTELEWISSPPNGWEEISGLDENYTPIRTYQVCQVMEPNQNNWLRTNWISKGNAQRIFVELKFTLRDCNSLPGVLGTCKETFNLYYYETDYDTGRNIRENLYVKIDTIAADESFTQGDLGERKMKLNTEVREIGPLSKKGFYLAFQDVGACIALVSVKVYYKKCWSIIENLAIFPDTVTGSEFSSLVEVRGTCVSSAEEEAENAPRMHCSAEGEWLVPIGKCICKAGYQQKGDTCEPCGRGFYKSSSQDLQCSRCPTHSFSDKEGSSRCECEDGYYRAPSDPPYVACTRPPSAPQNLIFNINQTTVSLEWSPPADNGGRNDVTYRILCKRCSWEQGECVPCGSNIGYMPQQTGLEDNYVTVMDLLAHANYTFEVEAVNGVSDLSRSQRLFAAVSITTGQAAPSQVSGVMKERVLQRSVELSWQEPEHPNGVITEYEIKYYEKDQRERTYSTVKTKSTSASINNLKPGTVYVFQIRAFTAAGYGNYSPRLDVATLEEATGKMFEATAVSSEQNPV

T2: human EphA8 (Homo sapiens, UniProt P29322)
T2 construct: a protein of the extracellular region of each human Eph receptor fused with the SEAP protein and the His tag; made in house; host or cells: Expi293F cells (culture supernatant)
T2 sequence (P29322 28-542 limits assumed): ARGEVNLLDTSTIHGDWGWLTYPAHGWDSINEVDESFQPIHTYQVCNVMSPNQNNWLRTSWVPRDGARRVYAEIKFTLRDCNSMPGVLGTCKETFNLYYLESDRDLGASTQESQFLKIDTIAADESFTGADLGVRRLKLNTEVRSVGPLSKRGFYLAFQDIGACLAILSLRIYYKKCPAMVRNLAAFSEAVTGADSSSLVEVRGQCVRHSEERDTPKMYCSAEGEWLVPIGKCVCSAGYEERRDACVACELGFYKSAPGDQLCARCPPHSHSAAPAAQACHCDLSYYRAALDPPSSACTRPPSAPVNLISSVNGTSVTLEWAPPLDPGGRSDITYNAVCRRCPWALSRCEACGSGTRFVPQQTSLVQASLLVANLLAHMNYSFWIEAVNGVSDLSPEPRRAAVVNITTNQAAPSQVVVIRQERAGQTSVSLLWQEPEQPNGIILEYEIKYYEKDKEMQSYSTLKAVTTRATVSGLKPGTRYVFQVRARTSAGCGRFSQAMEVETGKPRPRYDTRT

T3: human EphB4 (Homo sapiens, UniProt P54760)
T3 construct: a protein of the extracellular region of each human Eph receptor fused with the SEAP protein and the His tag; made in house; host or cells: Expi293F cells
T3 sequence (P54760 16-539 limits assumed): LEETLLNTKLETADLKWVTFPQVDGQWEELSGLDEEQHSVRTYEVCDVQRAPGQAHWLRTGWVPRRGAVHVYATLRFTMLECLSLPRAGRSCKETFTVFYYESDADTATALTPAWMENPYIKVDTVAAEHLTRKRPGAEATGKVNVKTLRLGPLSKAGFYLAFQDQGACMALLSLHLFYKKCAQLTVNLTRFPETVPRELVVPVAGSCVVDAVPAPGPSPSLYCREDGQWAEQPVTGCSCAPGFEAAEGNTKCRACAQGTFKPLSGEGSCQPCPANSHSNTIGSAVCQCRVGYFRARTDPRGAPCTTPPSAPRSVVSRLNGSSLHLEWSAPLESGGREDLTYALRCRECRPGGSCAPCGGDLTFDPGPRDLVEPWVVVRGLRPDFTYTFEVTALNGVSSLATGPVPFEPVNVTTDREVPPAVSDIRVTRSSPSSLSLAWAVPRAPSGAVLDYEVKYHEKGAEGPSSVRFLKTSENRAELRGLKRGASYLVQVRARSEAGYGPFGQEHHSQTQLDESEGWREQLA

B1: 94 (antibody, V domains shown)
VL: EIVMTQSPATLSVSPGERATLSCRASENIYRNLAWYQQKPGQSPRLLIYAATNLADGIPARFSGSGSGTEYTLTISSLQSEDFAVYYCQHFWGTPWTFGQGTKVEIK
VH: QVQLVQSGSELKKPGASVKVSCKASGYTFTDYSMHWVRQAPGQGLKWMGWINTETGEPTYAQGFTGRFVFSLDTSVSTAYLQISSLKAEDTAVYYCARIPLYYYGSRYWYFDVWGQGTTVTVSS
modifications: constant regions without entry; synthetic humanized antibody light chain variable region sequence; synthetic humanized antibody heavy chain variable region sequence
B2: 71 (antibody, V domains shown)
VH: B1 VH with V2I
VL: B1 VL
modifications: synthetic humanized antibody heavy chain variable region sequence; synthetic humanized antibody light chain variable region sequence
B3: 95 (antibody, V domains shown)
VL: B1 VL
VH: B1 VH with K46E, Q62D, G63D, T65K
modifications: constant regions without entry; synthetic humanized antibody light chain variable region sequence; synthetic humanized antibody heavy chain variable region sequence
B4: 73 (antibody, V domains shown)
VH: B1 VH with V2I, Q62D, G63D, T65K
VL: B1 VL
modifications: synthetic humanized antibody heavy chain variable region sequence; synthetic humanized antibody light chain variable region sequence
B5: 96 (antibody, V domains shown)
VL: B1 VL
VH: B1 VH with Q62D, G63D, T65K
modifications: constant regions without entry; synthetic humanized antibody light chain variable region sequence; synthetic humanized antibody heavy chain variable region sequence

What follows are molecules tested against SEAP-His (Homo sapiens, UniProt P05187) (assay: Selectivity ELISA of humanized antibodies for human Eph receptor). Details: coated protein 1 nM.
Chain of SEAP-His (P05187 23-511 limits assumed): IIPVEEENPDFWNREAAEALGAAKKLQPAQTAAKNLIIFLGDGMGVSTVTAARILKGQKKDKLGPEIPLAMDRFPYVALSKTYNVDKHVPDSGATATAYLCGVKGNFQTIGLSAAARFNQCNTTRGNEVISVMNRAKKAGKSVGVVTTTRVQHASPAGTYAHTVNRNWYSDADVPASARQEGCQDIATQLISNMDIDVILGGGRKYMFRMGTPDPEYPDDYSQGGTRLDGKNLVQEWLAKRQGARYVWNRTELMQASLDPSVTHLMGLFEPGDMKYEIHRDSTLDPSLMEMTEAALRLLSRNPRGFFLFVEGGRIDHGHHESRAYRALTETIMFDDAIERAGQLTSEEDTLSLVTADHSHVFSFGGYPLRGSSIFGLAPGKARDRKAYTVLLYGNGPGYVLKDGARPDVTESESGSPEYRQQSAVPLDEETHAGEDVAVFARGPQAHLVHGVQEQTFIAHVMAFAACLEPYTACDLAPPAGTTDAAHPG
Type: binding
Method in brief: (§1)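 His-tagged SEAP fusions of each human Eph receptor extracellular region, from Expi293F supernatants, were captured at 1 nM on anti-His-coated wells. Humanized antibody was bound 1 h at room temperature, then detected with HRP […] IgG. TMB development was acid-stopped and read at 450 nm.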

Compared with B1, B2 is lower in “SEAP-His: absorbance at 450 nm, percentage with respect to hEphA4-SEAP-His as 100%” value: 6.7% for the first, 5.6% for the second.

Going from B3 to B4, the “SEAP-His: absorbance at 450 nm, percentage with respect to hEphA4-SEAP-His as 100%” value rises from 4.4% to 5.8%.

With B5 the “SEAP-His: absorbance at 450 nm, percentage with respect to hEphA4-SEAP-His as 100%” value was 5.5%.

What follows are molecules tested against T1, human EphA7 in the same assay as above. Details: coated protein 1 nM.
Type: binding
Method in brief: as §1

First: B1
Second: B2
The “hEphA7-SEAP-: absorbance at 450 nm, percentage with respect to hEphA4-SEAP-His as 100%” value of the first is higher: 6.1% for the first, 5.2% for the second.

First: B3
Second: B4
The “hEphA7-SEAP-: absorbance at 450 nm, percentage with respect to hEphA4-SEAP-His as 100%” value of the first is lower: 4.4% for the first, 5.6% for the second.

In the case of B5, the “hEphA7-SEAP-: absorbance at 450 nm, percentage with respect to hEphA4-SEAP-His as 100%” value is reported as 5.3%.

These molecules were tested against T2, human EphA8 in the same assay as above. Details: coated protein 1 nM.
Type: binding
Method in brief: as §1

First: B1
Second: B2
The “hEphA8-SEAP-: absorbance at 450 nm, percentage with respect to hEphA4-SEAP-His as 100%” value of the first is higher: 7.0% for the first, 5.3% for the second.

Compared with B3, B4 is higher in “hEphA8-SEAP-: absorbance at 450 nm, percentage with respect to hEphA4-SEAP-His as 100%” value: 4.4% for the first, 5.8% for the second.

For B5, the “hEphA8-SEAP-: absorbance at 450 nm, percentage with respect to hEphA4-SEAP-His as 100%” value was 5.4%.

These molecules were tested against T3, human EphB4 in the same assay as above. Details: coated protein 1 nM.
Type: binding
Method in brief: as §1

Compared with B1, B2 is lower in “hEphB4-SEAP-: absorbance at 450 nm, percentage with respect to hEphA4-SEAP-His as 100%” value: 6.5% for the first, 5.5% for the second.

Going from B3 to B4, the “hEphB4-SEAP-: absorbance at 450 nm, percentage with respect to hEphA4-SEAP-His as 100%” value rises from 4.6% to 5.7%.

For B5, the “hEphB4-SEAP-: absorbance at 450 nm, percentage with respect to hEphA4-SEAP-His as 100%” value was 5.5%.
